T1: bovine Flt-1 (VEGFR-1), endogenous on bovine aortic endothelial cells (BAEC) (bovine)
T1 sequence: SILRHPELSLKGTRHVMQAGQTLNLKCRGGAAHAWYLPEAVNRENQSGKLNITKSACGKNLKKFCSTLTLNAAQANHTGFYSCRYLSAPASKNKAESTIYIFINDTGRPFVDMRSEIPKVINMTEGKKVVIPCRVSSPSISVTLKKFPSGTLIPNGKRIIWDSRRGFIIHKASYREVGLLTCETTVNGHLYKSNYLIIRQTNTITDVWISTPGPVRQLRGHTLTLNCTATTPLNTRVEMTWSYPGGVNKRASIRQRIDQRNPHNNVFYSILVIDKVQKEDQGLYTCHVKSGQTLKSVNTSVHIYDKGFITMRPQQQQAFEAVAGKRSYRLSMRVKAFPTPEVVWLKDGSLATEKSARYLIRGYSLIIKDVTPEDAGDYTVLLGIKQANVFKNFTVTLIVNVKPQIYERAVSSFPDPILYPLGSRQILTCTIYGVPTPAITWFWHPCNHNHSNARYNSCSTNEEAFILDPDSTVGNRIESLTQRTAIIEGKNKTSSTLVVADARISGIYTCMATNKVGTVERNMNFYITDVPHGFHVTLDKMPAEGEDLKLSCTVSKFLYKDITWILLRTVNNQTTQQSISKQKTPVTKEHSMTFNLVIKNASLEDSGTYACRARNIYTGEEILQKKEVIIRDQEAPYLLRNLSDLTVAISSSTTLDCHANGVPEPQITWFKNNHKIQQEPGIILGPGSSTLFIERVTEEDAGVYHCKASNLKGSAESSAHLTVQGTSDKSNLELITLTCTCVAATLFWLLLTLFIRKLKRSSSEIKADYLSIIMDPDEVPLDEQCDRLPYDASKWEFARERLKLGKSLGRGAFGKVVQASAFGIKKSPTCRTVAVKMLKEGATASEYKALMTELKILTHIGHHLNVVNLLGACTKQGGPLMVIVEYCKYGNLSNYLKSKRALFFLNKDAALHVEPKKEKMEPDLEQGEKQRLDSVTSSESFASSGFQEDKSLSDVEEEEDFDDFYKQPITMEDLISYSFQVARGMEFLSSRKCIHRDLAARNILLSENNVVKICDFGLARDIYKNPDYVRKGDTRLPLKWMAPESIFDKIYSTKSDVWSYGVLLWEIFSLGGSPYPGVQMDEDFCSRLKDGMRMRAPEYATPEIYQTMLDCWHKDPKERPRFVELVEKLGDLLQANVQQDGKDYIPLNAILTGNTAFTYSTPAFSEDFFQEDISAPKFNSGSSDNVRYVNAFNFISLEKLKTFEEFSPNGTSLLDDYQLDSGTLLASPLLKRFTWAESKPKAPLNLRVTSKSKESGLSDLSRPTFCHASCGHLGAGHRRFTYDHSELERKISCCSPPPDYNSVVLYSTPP


Legend:
Test in all cases: cell-based or functional assay
[1] = biological target: T1, bovine Flt-1 (VEGFR-1), endogenous on bovine aortic endothelial cells (BAEC) (bovine)
[2] = biological target: bovine Flk-1 (VEGFR-2), endogenous on bovine aortic endothelial cells (BAEC) (bovine)
[3] = biological target: T1, bovine Flt-1 (VEGFR-1), endogenous on bovine aortic endothelial cells (BAEC) (bovine); remark: listed apart in the source

| Flt-1 phosphorylation in BAEC stimulated with VEGF (10^-9 M), anti-phosphotyrosine Western blot of immunoprecipitated receptor (fold over PBS-treated cells) [1] | BAEC migration (modified Boyden chamber, 5 h), VEGF 2.5x10^-10 M (% increase over PBS-stimulated cells) [2] | BAEC migration (modified Boyden chamber, 5 h), VEGF 10^-9 M (% increase over PBS-stimulated cells) [2] | BAEC migration (modified Boyden chamber, 5 h), VEGF 10^-10 M (% increase over PBS-stimulated cells) [2] | BAEC proliferation (cell count at 72 h), VEGF 2.5x10^-10 M (% increase over DMEM/1% FBS) [2] | BAEC proliferation (cell count at 72 h), VEGF 10^-10 M (% increase over DMEM/1% FBS) [2] | BAEC proliferation (cell count at 72 h), VEGF 10^-11 M (% increase over DMEM/1% FBS) [2] | Flk-1 phosphorylation in BAEC stimulated with VEGF (10^-9 M), anti-phosphotyrosine Western blot of immunoprecipitated receptor (fold over PBS-treated cells) [2] | PAF synthesis by BAEC (3H-acetate incorporation, 15 min), VEGF 10^-8 M (fold over PBS-treated cells) [2] | PAF synthesis by BAEC (3H-acetate incorporation, 15 min), VEGF 10^-9 M (fold over PBS-treated cells) [2] | PAF synthesis by BAEC (3H-acetate incorporation, 15 min), VEGF 10^-10 M (fold over PBS-treated cells) [2] | PAF synthesis by BAEC (3H-acetate incorporation, 15 min), PlGF 10^-8 M (% increase over PBS-treated cells) [3] | Molecule |
| --- | --- | --- | --- | --- | --- | --- | --- | --- | --- | --- | --- | --- |
| 1.5 | 83 | 130 | 46 | 219 | 183 | 62 | 13.2 | 35.9 | 20.4 | 7.2 | – | human recombinant vascular growth factor, VEGF165 (PeproTech Inc.) (from UniProt P15692 27-191) (ligand) |
| – | – | – | – | – | – | – | – | – | – | – | 67 | human placenta growth factor, PlGF152 (R & D Systems) (ligand, UniProt P49763-3 19-170, looked up) LPAVPPQQWALSAGNGSSEVEVVPFQEVWGRSYCRALERLVDVVSEYPSEVEHMFSPSCVSLLRCTGCCGDENLHCVPVETANVTMQLLKIRSGDRPSYVELTFSQHVRCECRPLREKMKPERRRPKGRGKRRREKQRPTDCHLCGDAVPRR |

— patent publication US20030186920A1
